T1: human neuromedin U receptor 1 (human, UniProt Q9HB89 24-426)
T1 sequence (looked up): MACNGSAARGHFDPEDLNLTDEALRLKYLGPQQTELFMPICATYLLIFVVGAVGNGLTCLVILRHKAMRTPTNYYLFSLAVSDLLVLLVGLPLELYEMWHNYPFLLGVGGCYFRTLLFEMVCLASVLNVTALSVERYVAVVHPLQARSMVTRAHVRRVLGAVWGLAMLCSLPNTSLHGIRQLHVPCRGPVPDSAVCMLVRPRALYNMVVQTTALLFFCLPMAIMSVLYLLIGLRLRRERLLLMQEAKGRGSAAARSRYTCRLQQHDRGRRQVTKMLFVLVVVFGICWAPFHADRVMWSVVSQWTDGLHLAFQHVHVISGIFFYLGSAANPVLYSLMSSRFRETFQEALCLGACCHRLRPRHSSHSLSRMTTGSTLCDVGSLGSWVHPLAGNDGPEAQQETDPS


molecular target: T1, human neuromedin U receptor 1; test: cell-based or functional assay

| EC50 (hNMUR1) buffer [nM] | Binder |
| --- | --- |
| 220 | EEEXXXXXXXXXXXXXXXXYFLXRPRG (HELM PEPTIDE1{[O=C(O)CCCCCCCCCCCCCCCCCCC(=O)[*:2]].[gGlu].[gGlu].[gGlu].[Sar].[Sar].[Sar].[Sar].[Sar].[Sar].[Sar].[Sar].[Sar].[Sar].[Sar].[Sar].[Sar].[Sar].[Sar].[O=C(CN1CCN(CCN[*:1])CC1)[*:2]].Y.F.[meL].[Nle].R.P.R.G.[am]}$$$$V2.0; SMILES CCCC[C@H](NC(=O)[C@H](CC(C)C)N(C)C(=O)[C@H](Cc1ccccc1)NC(=O)[C@H](Cc1ccc(O)cc1)NC(=O)CN1CCN(CCNC(=O)CN(C)C(=O)CN(C)C(=O)CN(C)C(=O)CN(C)C(=O)CN(C)C(=O)CN(C)C(=O)CN(C)C(=O)CN(C)C(=O)CN(C)C(=O)CN(C)C(=O)CN(C)C(=O)CN(C)C(=O)CN(C)C(=O)CN(C)C(=O)CN(C)C(=O)CC[C@H](NC(=O)CC[C@H](NC(=O)CC[C@H](NC(=O)CCCCCCCCCCCCCCCCCCC(=O)O)C(=O)O)C(=O)O)C(=O)O)CC1)C(=O)N[C@@H](CCCNC(=N)N)C(=O)N1CCC[C@H]1C(=O)N[C@@H](CCCNC(=N)N)C(=O)NCC(N)=O) [C20DA-gGlu3-Sar15-AEPipAc-Tyr-Phe-NMeLeu-Nle-Arg-Pro-Arg-Gly-NH2] |
| 720 | EEEXXXXXXXXXXXXXXXXYFLXRARG (HELM PEPTIDE1{[O=C(O)CCCCCCCCCCCCCCCCCCC(=O)[*:2]].[gGlu].[gGlu].[gGlu].[Sar].[Sar].[Sar].[Sar].[Sar].[Sar].[Sar].[Sar].[Sar].[Sar].[Sar].[Sar].[Sar].[Sar].[Sar].[O=C(CN1CCN(CCN[*:1])CC1)[*:2]].Y.F.[meL].[Nle].R.[meA].R.G.[am]}$$$$V2.0; SMILES CCCC[C@H](NC(=O)[C@H](CC(C)C)N(C)C(=O)[C@H](Cc1ccccc1)NC(=O)[C@H](Cc1ccc(O)cc1)NC(=O)CN1CCN(CCNC(=O)CN(C)C(=O)CN(C)C(=O)CN(C)C(=O)CN(C)C(=O)CN(C)C(=O)CN(C)C(=O)CN(C)C(=O)CN(C)C(=O)CN(C)C(=O)CN(C)C(=O)CN(C)C(=O)CN(C)C(=O)CN(C)C(=O)CN(C)C(=O)CN(C)C(=O)CC[C@H](NC(=O)CC[C@H](NC(=O)CC[C@H](NC(=O)CCCCCCCCCCCCCCCCCCC(=O)O)C(=O)O)C(=O)O)C(=O)O)CC1)C(=O)N[C@@H](CCCNC(=N)N)C(=O)N(C)[C@@H](C)C(=O)N[C@@H](CCCNC(=N)N)C(=O)NCC(N)=O) [C20DA-gGlu3-Sar15-AEPipAc-Tyr-Phe-NMeLeu-Nle-Arg-NMeAla-Arg-Gly-NH2] |

Second part, the binder before the results:

| Binder | EC50 (hNMUR1) buffer [nM] |
| --- | --- |
| EEEXXXXXXXXXXXXXXXXYFLXRARG (HELM PEPTIDE1{[O=C(O)CCCCCCCCCCCCCCCCC(=O)[*:2]].[gGlu].[gGlu].[gGlu].[Sar].[Sar].[Sar].[Sar].[Sar].[Sar].[Sar].[Sar].[Sar].[Sar].[Sar].[Sar].[Sar].[Sar].[Sar].[O=C(CN1CCN(CCN[*:1])CC1)[*:2]].Y.F.[meL].[Nle].R.[meA].R.G.[am]}$$$$V2.0; SMILES CCCC[C@H](NC(=O)[C@H](CC(C)C)N(C)C(=O)[C@H](Cc1ccccc1)NC(=O)[C@H](Cc1ccc(O)cc1)NC(=O)CN1CCN(CCNC(=O)CN(C)C(=O)CN(C)C(=O)CN(C)C(=O)CN(C)C(=O)CN(C)C(=O)CN(C)C(=O)CN(C)C(=O)CN(C)C(=O)CN(C)C(=O)CN(C)C(=O)CN(C)C(=O)CN(C)C(=O)CN(C)C(=O)CN(C)C(=O)CN(C)C(=O)CC[C@H](NC(=O)CC[C@H](NC(=O)CC[C@H](NC(=O)CCCCCCCCCCCCCCCCC(=O)O)C(=O)O)C(=O)O)C(=O)O)CC1)C(=O)N[C@@H](CCCNC(=N)N)C(=O)N(C)[C@@H](C)C(=O)N[C@@H](CCCNC(=N)N)C(=O)NCC(N)=O) [C18DA-gGlu3-Sar15-AEPipAc-Tyr-Phe-NMeLeu-Nle-Arg-NMeAla-Arg-Gly-NH2] | 1100 |
| EEEXXXXXXXXXXXXXYFLXXPRG (HELM PEPTIDE1{[O=C(O)CCCCCCCCCCCCCCCCCCC(=O)[*:2]].[gGlu].[gGlu].[gGlu].[Sar].[Sar].[Sar].[Sar].[Sar].[Sar].[Sar].[Sar].[Sar].[Sar].[Sar].[Sar].[O=C(CN1CCN(CCN[*:1])CC1)[*:2]].Y.F.[meL].[Nle].[Dab].P.R.G.[am]}$$$$V2.0; SMILES CCCC[C@H](NC(=O)[C@H](CC(C)C)N(C)C(=O)[C@H](Cc1ccccc1)NC(=O)[C@H](Cc1ccc(O)cc1)NC(=O)CN1CCN(CCNC(=O)CN(C)C(=O)CN(C)C(=O)CN(C)C(=O)CN(C)C(=O)CN(C)C(=O)CN(C)C(=O)CN(C)C(=O)CN(C)C(=O)CN(C)C(=O)CN(C)C(=O)CN(C)C(=O)CN(C)C(=O)CC[C@H](NC(=O)CC[C@H](NC(=O)CC[C@H](NC(=O)CCCCCCCCCCCCCCCCCCC(=O)O)C(=O)O)C(=O)O)C(=O)O)CC1)C(=O)N[C@@H](CCN)C(=O)N1CCC[C@H]1C(=O)N[C@@H](CCCNC(=N)N)C(=O)NCC(N)=O) [C20DA-gGlu3-Sar12-AEPipAc-Tyr-Phe-NMeLeu-Nle-Dbu-Pro-Arg-Gly-NH2] | 1000 |
| EEEXXXXXXXXXXXXXYFLXXPRG (HELM PEPTIDE1{[O=C(O)CCCCCCCCCCCCCCCCC(=O)[*:2]].[gGlu].[gGlu].[gGlu].[Sar].[Sar].[Sar].[Sar].[Sar].[Sar].[Sar].[Sar].[Sar].[Sar].[Sar].[Sar].[O=C(CN1CCN(CCN[*:1])CC1)[*:2]].Y.F.[meL].[Nle].[Orn].P.R.G.[am]}$$$$V2.0; SMILES CCCC[C@H](NC(=O)[C@H](CC(C)C)N(C)C(=O)[C@H](Cc1ccccc1)NC(=O)[C@H](Cc1ccc(O)cc1)NC(=O)CN1CCN(CCNC(=O)CN(C)C(=O)CN(C)C(=O)CN(C)C(=O)CN(C)C(=O)CN(C)C(=O)CN(C)C(=O)CN(C)C(=O)CN(C)C(=O)CN(C)C(=O)CN(C)C(=O)CN(C)C(=O)CN(C)C(=O)CC[C@H](NC(=O)CC[C@H](NC(=O)CC[C@H](NC(=O)CCCCCCCCCCCCCCCCC(=O)O)C(=O)O)C(=O)O)C(=O)O)CC1)C(=O)N[C@@H](CCCN)C(=O)N1CCC[C@H]1C(=O)N[C@@H](CCCNC(=N)N)C(=O)NCC(N)=O) [C18DA-gGlu3-Sar12-AEPipAc-Tyr-Phe-NMeLeu-Nle-Orn-Pro-Arg-Gly-NH2] | 660 |
| EEEXXXXXXXXXXXXXYFLXRARG (HELM PEPTIDE1{[O=C(O)CCCCCCCCCCCCCCCCC(=O)[*:2]].[gGlu].[gGlu].[gGlu].[Sar].[Sar].[Sar].[Sar].[Sar].[Sar].[Sar].[Sar].[Sar].[Sar].[Sar].[Sar].[O=C(CN1CCN(CCN[*:1])CC1)[*:2]].Y.F.[meL].[Nle].R.[meA].R.G.[am]}$$$$V2.0; SMILES CCCC[C@H](NC(=O)[C@H](CC(C)C)N(C)C(=O)[C@H](Cc1ccccc1)NC(=O)[C@H](Cc1ccc(O)cc1)NC(=O)CN1CCN(CCNC(=O)CN(C)C(=O)CN(C)C(=O)CN(C)C(=O)CN(C)C(=O)CN(C)C(=O)CN(C)C(=O)CN(C)C(=O)CN(C)C(=O)CN(C)C(=O)CN(C)C(=O)CN(C)C(=O)CN(C)C(=O)CC[C@H](NC(=O)CC[C@H](NC(=O)CC[C@H](NC(=O)CCCCCCCCCCCCCCCCC(=O)O)C(=O)O)C(=O)O)C(=O)O)CC1)C(=O)N[C@@H](CCCNC(=N)N)C(=O)N(C)[C@@H](C)C(=O)N[C@@H](CCCNC(=N)N)C(=O)NCC(N)=O) [C18DA-gGlu3-Sar12-AEPipAc-Tyr-Phe-NMeLeu-Nle-Arg-NMeAla-Arg-Gly-NH2] | 1000 |

Source: patent US20240279278A1, “NMU RECEPTOR 2 AGONISTS” (Boehringer Ingelheim International GmbH, priority 2023, published 2024)
